# Results taken from patent US20170306033A1 (Amgen, published 2017).
# T1: human PAC1 receptor (human, UniProt P41586 21-468)
# T1 sequence: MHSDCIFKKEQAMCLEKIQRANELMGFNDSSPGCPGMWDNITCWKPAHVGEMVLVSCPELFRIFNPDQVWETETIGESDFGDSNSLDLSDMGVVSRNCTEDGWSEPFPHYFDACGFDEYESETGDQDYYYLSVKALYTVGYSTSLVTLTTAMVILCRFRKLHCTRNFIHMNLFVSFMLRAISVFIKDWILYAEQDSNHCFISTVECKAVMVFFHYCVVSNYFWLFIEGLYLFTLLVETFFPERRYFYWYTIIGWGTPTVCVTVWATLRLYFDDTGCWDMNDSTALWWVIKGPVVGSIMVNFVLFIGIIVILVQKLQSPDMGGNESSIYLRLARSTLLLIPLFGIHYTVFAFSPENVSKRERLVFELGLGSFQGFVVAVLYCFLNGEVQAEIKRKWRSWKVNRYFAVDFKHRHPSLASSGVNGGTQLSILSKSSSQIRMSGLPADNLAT
# Key:
# [1] = molecular target: human CGRP receptor (human, UniProt Q16602 23-461; O60894 27-148); assay: cell-based or functional assay
# Chain of human CGRP receptor (Q16602 23-461 limits assumed, chain 1 of 2): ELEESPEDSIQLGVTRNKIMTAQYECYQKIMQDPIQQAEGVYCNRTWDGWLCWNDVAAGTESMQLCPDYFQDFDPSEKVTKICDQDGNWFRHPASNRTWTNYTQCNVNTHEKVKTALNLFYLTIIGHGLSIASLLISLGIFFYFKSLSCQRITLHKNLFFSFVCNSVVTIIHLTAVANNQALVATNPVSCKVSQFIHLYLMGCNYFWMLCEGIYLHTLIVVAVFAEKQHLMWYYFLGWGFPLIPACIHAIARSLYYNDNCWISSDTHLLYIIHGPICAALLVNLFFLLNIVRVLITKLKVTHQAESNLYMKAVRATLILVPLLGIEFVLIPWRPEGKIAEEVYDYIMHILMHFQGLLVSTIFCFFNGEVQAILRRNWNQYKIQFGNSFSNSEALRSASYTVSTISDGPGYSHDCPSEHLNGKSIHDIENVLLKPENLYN
# Chain of human CGRP receptor (O60894 27-148 limits assumed, chain 2 of 2): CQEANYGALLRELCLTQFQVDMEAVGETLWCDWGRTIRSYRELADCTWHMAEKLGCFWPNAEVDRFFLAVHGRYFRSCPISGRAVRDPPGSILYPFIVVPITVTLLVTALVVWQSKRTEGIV
# [2] = molecular target: T1, human PAC1 receptor; assay: cell-based or functional assay
Binder,% inhibition of human CGRPR [1] [%],% inhibition of human PAC1 [2] [%]
"iPS:327017 (bispecific antibody, human IgG1, kappa, N297G) light 1: not shown heavy 1: not shown light 2: EIVLTQSPGTLSLSPGERATLSCRASQSVSSGYLTWYQQKPGQAPRLLIYGASSRATGIPDRFSGSGSGTDFTLTISRLEPEDFAVYYCQQYGNSLSRFGQGTKLEIKRTVAAPSVFIFPPSDEQLKSGTASVVCLLNNFYPREAKVQWKVDNALQSGNSQESVTEQDSKDSTYSLKSTLTLSKADYEKHKVYACEVTHQGLSSPVTKSFNRGEC heavy 2: not shown",67,27
"iPS:327018 (bispecific antibody, human IgG1, kappa, N297G) light 1: DIQLTQSPSFLSASVGDRVTITCRASQSIGRSLHWYQQKPGKAPKLLIKYASQSLSGVPSRFSGSGSGTEFTLTISSLQPEDFATYYCHQSSRLPFTFGPGTKVDIKRTVAAPSVFIFPPSDEQLKSGTASVVCLLNNFYPREAKVQWKVDNALQSGNSQESVTEQDSKDSTYSLESTLTLSKADYEKHKVYACEVTHQGLSSPVTKSFNRGEC heavy 1: not shown light 2: EIVLTQSPGTLSLSPGERATLSCRASQSVSSGYLTWYQQKPGQAPRLLIYGASSRATGIPDRFSGSGSGTDFTLTISRLEPEDFAVYYCQQYGNSLSRFGQGTKLEIKRTVAAPSVFIFPPSDEQLKSGTASVVCLLNNFYPREAKVQWKVDNALQSGNSQESVTEQDSKDSTYSLKSTLTLSKADYEKHKVYACEVTHQGLSSPVTKSFNRGEC heavy 2: not shown",68,17
"iPS:326648 (bispecific antibody, human IgG2, kappa, lambda) light 1: EIVLTQSPATLSLSPGERATLSCRASQSVGRSLHWYQQKPGQAPRLLIKYASQSLSGIPARFSGSGSGTDFTLTISSLEPEDFAVYYCHQSSRLPFTFGPGTKVDIKRTVAAPSVFIFPPSDEQLKSGTASVVCLLNNFYPREAKVQWKVDNALQSGNSQESVTEQDSKDSTYSLESTLTLSKADYEKHKVYACEVTHQGLSSPVTKSFNRGEC heavy 1: QVQLVESGGGVVQPGRSLRLSCAASGFTFSRFAMHWVRQAPGKGLEWVAVISYDGGNKYYAESVKGRFTISRDNSKNTLYLQMNSLRAEDTALFYCARGYDVLTGYPDYWGQGTLVTVSSASTKGPSVFPLAPCSRSTSESTAALGCLVKDYFPEPVTVSWNSGALTSGVHTFPAVLQSSGLYSLKSVVTVPSSNFGTQTYTCNVDHKPSNTKVDKTVERKCCVECPPCPAPPVAGPSVFLFPPKPKDTLMISRTPEVTCVVVDVSHEDPEVQFNWYVDGVEVHNAKTKPREEQFNSTFRVVSVLTVVHQDWLNGKEYKCKVSNKGLPAPIEKTISKTKGQPREPQVYTLPPSREEMTKNQVSLTCLVDGFYPSDIAVEWESNGQPENNYDTTPPMLDSDGSFFLYSDLTVDKSRWQQGNVFSCSVMHEALHNHYTQKSLSLSPGK light 2: not shown heavy 2: not shown",73,92
"iPS:328047 (bispecific antibody, human IgG1, kappa, lambda, N297G) light 1: DIQMTQSPSSLSASVGDRITITCRASQSISRYLNWYQQKPGKAPKLLIYAASSLQSGIPSRFSGSGSGTDFTLTINSLQPEDFATYFCQQSYSPPFTFGQGTKVDIKRTVAAPSVFIFPPSDEQLKSGTASVVCLLNNFYPREAKVQWKVDNALQSGNSQESVTEQDSKDSTYSLESTLTLSKADYEKHKVYACEVTHQGLSSPVTKSFNRGEC heavy 1: not shown light 2: QSVLTQPPSVSAAPGQKVTISCSGSSSNIGNNYVSWYQQLPGTAPKLLIYDNNKRPSGIPDRFSGSKSGTSTTLGITGLQTGDEADYYCGTWDSRLSAVVFGGGTKLTVLGQPKANPTVTLFPPSSEELQANKATLVCLISDFYPGAVTVAWKADGSPVKAGVETTKPSKQSNNKYAAKSYLSLTPEQWKSHRSYSCQVTHEGSTVEKTVAPTECS heavy 2: QVQLVESGGGVVQPGRSLRLSCAASGFTFSSFGMHWVRQAPGKGLEWVAVISFDGSIKYSVDSVKGRFTISRDNSKNTLFLQMNSLRAEDTAVYYCARDRLNYYDSSGYYHYKYYGMAVWGQGTTVTVSSASTKGPSVFPLAPSSKSTSGGTAALGCLVKDYFPEPVTVSWNSGALTSGVHTFPAVLQSSGLYSLESVVTVPSSSLGTQTYICNVNHKPSNTKVDKKVEPKSCDKTHTCPPCPAPELLGGPSVFLFPPKPKDTLMISRTPEVTCVVVDVSHEDPEVKFNWYVDGVEVHNAKTKPCEEQYGSTYRCVSVLTVLHQDWLNGKEYKCKVSNKALPAPIEKTISKAKGQPREPQVYTLPPSRKEMTKNQVSLTCLVKGFYPSDIAVEWESNGQPENNYKTTPPVLKSDGSFFLYSKLTVDKSRWQQGNVFSCSVMHEALHNHYTQKSLSLSPGK",78,33
"iPS:328048 (bispecific antibody, human IgG1, kappa, lambda, N297G) light 1: not shown heavy 1: not shown light 2: QSVLTQPPSVSAAPGQKVTISCSGSSSNIGNNYVSWYQQLPGTAPKLLIYDNNKRPSGIPDRFSGSKSGTSTTLGITGLQTGDEADYYCGTWDSRLSAVVFGGGTKLTVLGQPKANPTVTLFPPSSEELQANKATLVCLISDFYPGAVTVAWKADGSPVKAGVETTKPSKQSNNKYAAKSYLSLTPEQWKSHRSYSCQVTHEGSTVEKTVAPTECS heavy 2: QVQLVESGGGVVQPGRSLRLSCAASGFTFSSFGMHWVRQAPGKGLEWVAVISFDGSIKYSVDSVKGRFTISRDNSKNTLFLQMNSLRAEDTAVYYCARDRLNYYDSSGYYHYKYYGMAVWGQGTTVTVSSASTKGPSVFPLAPSSKSTSGGTAALGCLVKDYFPEPVTVSWNSGALTSGVHTFPAVLQSSGLYSLESVVTVPSSSLGTQTYICNVNHKPSNTKVDKKVEPKSCDKTHTCPPCPAPELLGGPSVFLFPPKPKDTLMISRTPEVTCVVVDVSHEDPEVKFNWYVDGVEVHNAKTKPCEEQYGSTYRCVSVLTVLHQDWLNGKEYKCKVSNKALPAPIEKTISKAKGQPREPQVYTLPPSRKEMTKNQVSLTCLVKGFYPSDIAVEWESNGQPENNYKTTPPVLKSDGSFFLYSKLTVDKSRWQQGNVFSCSVMHEALHNHYTQKSLSLSPGK",69,9

# Continued, values first:
% inhibition of human CGRPR [1] [%],% inhibition of human PAC1 [2] [%],Binder
80,11,"iPS:328050 (bispecific antibody, human IgG1, kappa, lambda, N297G) light 1: DIQMTQSPSSLSASVGDRITITCRASQSISRYLNWYQQKPGKAPKLLIYAASSLQSGIPSRFSGSGSGTDFTLTINSLQPEDFATYFCQQSYSPPFTFGQGTKVDIKRTVAAPSVFIFPPSDEQLKSGTASVVCLLNNFYPREAKVQWKVDNALQSGNSQESVTEQDSKDSTYSLESTLTLSKADYEKHKVYACEVTHQGLSSPVTKSFNRGEC heavy 1: not shown light 2: QSVLTQPPSVSAAPGQKVTISCSGSSSNIGNNYVSWYQQLPGTAPKLLIYDNNKRPSGIPDRFSGSKSGTSTTLGITGLQTGDEADYYCGTWDSRLSAVVFGGGTKLTVLGQPKANPTVTLFPPSSEELQANKATLVCLISDFYPGAVTVAWKADGSPVKAGVETTKPSKQSNNKYAAKSYLSLTPEQWKSHRSYSCQVTHEGSTVEKTVAPTECS heavy 2: QVQLVESGGGVVQPGRSLRLSCAASGFTFSSFGMHWVRQAPGKGLEWVAVISFDGSIKYSVDSVKGRFTISRDNSKNTLFLQMNSLRAEDTAVYYCARDRLNYYDSSGYYHYKYYGMAVWGQGTTVTVSSASTKGPSVFPLAPSSKSTSGGTAALGCLVKDYFPEPVTVSWNSGALTSGVHTFPAVLQSSGLYSLESVVTVPSSSLGTQTYICNVNHKPSNTKVDKKVEPKSCDKTHTCPPCPAPELLGGPSVFLFPPKPKDTLMISRTPEVTCVVVDVSHEDPEVKFNWYVDGVEVHNAKTKPCEEQYGSTYRCVSVLTVLHQDWLNGKEYKCKVSNKALPAPIEKTISKAKGQPREPQVYTLPPSRKKMTKNQVSLTCLVKGFYPSDIAVEWESNGQPENNYKTTPPVLKSDGSFFLYSKLTVDKSRWQQGNVFSCSVMHEALHNHYTQKSLSLSPGK"
77,21,"iPS:328051 (bispecific antibody, human IgG1, kappa, lambda, N297G) light 1: not shown heavy 1: not shown light 2: QSVLTQPPSVSAAPGQKVTISCSGSSSNIGNNYVSWYQQLPGTAPKLLIYDNNKRPSGIPDRFSGSKSGTSTTLGITGLQTGDEADYYCGTWDSRLSAVVFGGGTKLTVLGQPKANPTVTLFPPSSEELQANKATLVCLISDFYPGAVTVAWKADGSPVKAGVETTKPSKQSNNKYAAKSYLSLTPEQWKSHRSYSCQVTHEGSTVEKTVAPTECS heavy 2: QVQLVESGGGVVQPGRSLRLSCAASGFTFSSFGMHWVRQAPGKGLEWVAVISFDGSIKYSVDSVKGRFTISRDNSKNTLFLQMNSLRAEDTAVYYCARDRLNYYDSSGYYHYKYYGMAVWGQGTTVTVSSASTKGPSVFPLAPSSKSTSGGTAALGCLVKDYFPEPVTVSWNSGALTSGVHTFPAVLQSSGLYSLESVVTVPSSSLGTQTYICNVNHKPSNTKVDKKVEPKSCDKTHTCPPCPAPELLGGPSVFLFPPKPKDTLMISRTPEVTCVVVDVSHEDPEVKFNWYVDGVEVHNAKTKPCEEQYGSTYRCVSVLTVLHQDWLNGKEYKCKVSNKALPAPIEKTISKAKGQPREPQVYTLPPSRKKMTKNQVSLTCLVKGFYPSDIAVEWESNGQPENNYKTTPPVLKSDGSFFLYSKLTVDKSRWQQGNVFSCSVMHEALHNHYTQKSLSLSPGK"
92,13,"iPS:328049 (bispecific antibody, human IgG1, kappa, lambda, N297G) light 1: not shown heavy 1: not shown light 2: QSVLTQPPSVSAAPGQKVTISCSGSSSNIGNNYVSWYQQLPGTAPKLLIYDNNKRPSGIPDRFSGSKSGTSTTLGITGLQTGDEADYYCGTWDSRLSAVVFGKGTKLTVLGQPKANPTVTLFPPSSEELQANKATLVCLISDFYPGAVTVAWKADGSPVKAGVETTKPSKQSNNKYAAKSYLSLTPEQWKSHRSYSCQVTHEGSTVEKTVAPTECS heavy 2: QVQLVESGGGVVQPGRSLRLSCAASGFTFSSFGMHWVRQAPGKELEWVAVISFDGSIKYSVDSVKGRFTISRDNSKNTLFLQMNSLRAEDTAVYYCARDRLNYYDSSGYYHYKYYGMAVWGQGTTVTVSSASTKGPSVFPLAPSSKSTSGGTAALGCLVKDYFPEPVTVSWNSGALTSGVHTFPAVLQSSGLYSLESVVTVPSSSLGTQTYICNVNHKPSNTKVDKKVEPKSCDKTHTCPPCPAPELLGGPSVFLFPPKPKDTLMISRTPEVTCVVVDVSHEDPEVKFNWYVDGVEVHNAKTKPCEEQYGSTYRCVSVLTVLHQDWLNGKEYKCKVSNKALPAPIEKTISKAKGQPREPQVYTLPPSRKEMTKNQVSLTCLVKGFYPSDIAVEWESNGQPENNYKTTPPVLKSDGSFFLYSKLTVDKSRWQQGNVFSCSVMHEALHNHYTQKSLSLSPGK"
